For assay [1], the target named is HLA-A*2402 molecule (human). The experiment in a line: flow cytometry, acid-stripped C1R-A24 cells reconstituted with beta2m and peptide dilutions, stained with mAb 17A12. (In general: In flow cytometry, cells or beads pass a laser one at a time.)
Assay [2] concerns the target HLA-A*0206 molecule (human). The experiment in a line: flow cytometry, RA2.6 (RMAS-HLA-A*0206) stabilisation assay with peptide dilutions, stained with mAb BB7.2.
Assay [3] has as its target HLA-A*0201 molecule (human). The experiment in a line: flow cytometry, acid-stripped JY cells reconstituted with beta2m and peptide dilutions, stained with mAb BB7.2.

On to RVPGVAPTL (modifications not checked) [W302 peptide], for which the -log Kd in assay [1] was 7.67 -log Kd; in assay [2], 6.61 -log Kd; in assay [3], 6.41 -log Kd.

ALLPAVPSL (modifications not checked) [W10 peptide]: the figures for the -log Kd in assay [1], in assay [2] and in assay [3] were 9.16 -log Kd, 7.74 -log Kd and 7.84 -log Kd, respectively.

For the origin of these results see patent US20100255020A1, “METHOD FOR INDUCING CYTOTOXIC T-CELLS, CYTOTOXIC T-CELL INDUCERS, AND PHARMACEUTICAL COMPOSITIONS AND VACCINES EMPLOYING THEM” (NEC CORPORATION, priority 2007, published 2010).
